These results are taken from patent publication US20230049152A1 (Genentech, published 2023).

Residue numbers refer to the chain shown, from its start.

Assay [1] has as its target T1, human CCR8.CCR5 chimera ECL1 (human, UniProt P51681 86-99, limits assumed).
T1 construct: domain: ECL1; on transfected 293 cells; also called ECL1 chimera
In words: flow cytometry, 293 cells transfected with the CCR8.CCR5 chimera ECL1 with C-terminal FLAG. How it is done:
To epitope map fucosylated hu.Ab4.H12L3, the binding to chimeric forms of human CCR8 was analyzed by flow cytometry.

The target in a further assay is T2, V9A.
T2 construct: single alanine mutant of hCCR8; also called hCCR8 V9A
T2 receptor chain: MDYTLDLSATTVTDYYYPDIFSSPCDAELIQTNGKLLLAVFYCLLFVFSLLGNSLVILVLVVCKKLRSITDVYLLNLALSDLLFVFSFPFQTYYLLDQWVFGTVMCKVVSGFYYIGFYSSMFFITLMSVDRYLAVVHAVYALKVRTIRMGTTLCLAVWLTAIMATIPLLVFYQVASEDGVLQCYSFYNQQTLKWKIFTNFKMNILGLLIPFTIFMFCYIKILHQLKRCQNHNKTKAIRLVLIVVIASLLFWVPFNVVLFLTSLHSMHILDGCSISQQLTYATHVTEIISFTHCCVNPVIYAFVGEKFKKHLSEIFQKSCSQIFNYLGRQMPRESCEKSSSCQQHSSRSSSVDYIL
In words: flow cytometry, HEK293 transfected with hCCR8 V9A with C-terminal FLAG; sheet prints [huCCR8]=0.02 ug/ml. (In general: In flow cytometry, cells or beads pass a laser one at a time.)

The next assay has as its target T3, P24A.
T3 construct: single alanine mutant of hCCR8; also called hCCR8 P24A
T3 receptor chain: T2 receptor chain with A9V, P24A
In words: flow cytometry, HEK293 transfected with hCCR8 P24A with C-terminal FLAG; sheet prints [huCCR8]=0.02 ug/ml.

A further assay has as its target T4, hCCR8 Y3A (human, UniProt P51685 1-355).
T4 construct: alanine point mutant on transfected HEK 293 cells
In words: flow cytometry, HEK293 transfected with hCCR8 Y3A with C-terminal FLAG. How it is done: (§1) FIGS. 16A-16B depict the epitope maps for hu.Ab5.H13L1 (FIG. 16A) and hu.Ab4.H12L3 (FIG. 16B) mAbs.
(§2) To epitope map fucosylated hu.Ab5.H13L1, the binding to alanine point mutations in human CCR8 was analyzed by flow cytometry.

Another assay deals with T5, Y16A.
T5 construct: single alanine mutant of hCCR8; also called hCCR8 Y16A
T5 receptor chain: T2 receptor chain with A9V, Y16A
In words: flow cytometry, HEK293 transfected with hCCR8 Y16A with C-terminal FLAG; sheet prints [huCCR8]=0.02 ug/ml.

The next assay addresses T6, T4A.
T6 construct: single alanine mutant of hCCR8; also called hCCR8 T4A
T6 receptor chain: T2 receptor chain with T4A, A9V
In words: flow cytometry, HEK293 transfected with hCCR8 T4A with C-terminal FLAG; sheet prints [huCCR8]=0.02 ug/ml. On the procedure: as §1, §2

Another assay deals with T7, F21A.
T7 construct: single alanine mutant of hCCR8; also called hCCR8 F21A
T7 receptor chain: T2 receptor chain with A9V, F21A
In words: flow cytometry, HEK293 transfected with hCCR8 F21A with C-terminal FLAG; sheet prints [huCCR8]=0.02 ug/ml. How it is done: as §1, §2

B1: hu.Ab4.H12L3 (antibody, human IgG1, kappa)
heavy: not shown
light: DYQMTQSPSSLSASVGDRVTITCQASQSISSYLSWYQQKPGKAPKLLIYKASTLASGVPSRFSGSGSGTDFTLTISSLQPEDFATYYCQQGYTSSNIDNIFGGGTKVEIKRTVAAPSVFIFPPSDEQLKSGTASVVCLLNNFYPREAKVQWKVDNALQSGNSQESVTEQDSKDSTYSLSSTLTLSKADYEKHKVYACEVTHQGLSSPVTKSFNRGEC
notes: fucosylated human IgG1; also called huCCR8-Ab4.H12L3.hIgG1; Ab4 variant
For the molecule B1, the binding result in assay [1] is listed as “no binding”.

B2: hu.Ab5.H13L1 (antibody, human IgG1, kappa)
heavy: not shown
light: DIQVTQSPSSLSASVGDRVTITCQASENIANALAWYQQKPGKPPKFLIYGASNLASGVPSRFSGSGSGTDFTFTISSLQPEDIATYYCQQAYYGNSFVEGTFGGGTKVEIKRTVAAPSVFIFPPSDEQLKSGTASVVCLLNNFYPREAKVQWKVDNALQSGNSQESVTEQDSKDSTYSLSSTLTLSKADYEKHKVYACEVTHQGLSSPVTKSFNRGEC
notes: fucosylated human IgG1; also called Ab5 variant
B2: the binding result with V9A is listed as “binds”; with P24A, “binds”; in the assay with hCCR8 Y3A it was “no binding (tested: 0.02 ug/ml)”; with Y16A, “binds”; with T4A, “binds”; in the assay with F21A, “binds”.
